Laboratory results reported in PMC3423377 (2012).

Target: ML/HLA-A2 pMHC, soluble recombinant (human | )
Experiment: SPR

B1: fML soluble recombinant Fab (Fab, V domains shown)
VH: EVQLVESGGGLVQPGGSLRLSCAASGFNFSYYSIHWVRQAPGKGLEWVASIYSSSSYTSYADSVKGRFTISADTSKNTAYLQMNSLRAEDTAVYYCARGYYGEWGMDYWGQGTLVTVSS
VL: DIQMTQSPSSLSASVGDRVTITCRASQSVSSAVAWYQQKPGKAPKLLIYSASSLYSGVPSRFSGSRSGTDFTLTISSLQPEDFATYYCQQWNAYPVTFGQGTKVEIK
koff: 0.016 s⁻¹
